According to paper PMC3763809:

Key:
[1] = biological target: H3(1-132)-LEEGLG nucleosome, first Glu of the tail to Ala (Drosophila | human) (UniProt P02299); experiment: ITC
[2] = biological target: H3(1-132)-LEEGLG nucleosome, second Glu of the tail to Ala (Drosophila | human) (UniProt P02299); experiment: ITC

Chain of CENP-C central region, CENP-C(444-537) (Q03188 444-537): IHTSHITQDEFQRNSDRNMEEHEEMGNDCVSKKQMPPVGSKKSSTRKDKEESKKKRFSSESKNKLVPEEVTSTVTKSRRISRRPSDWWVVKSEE

factor of change of Kd against the H3(1-132)-LEEGLG nucleosome [1]: 3 fold
factor of change of Kd against the H3(1-132)-LEEGLG nucleosome [2]: 10 fold
Substance: CENP-C central region, CENP-C(444-537) (from UniProt Q03188 444-537) (domain or fragment)
